We go through 2 substances from article PMC5606208.

pKd: −log10 of the molar value.

The target of assay [1] is Phos-HP1α (HP1α co-expressed with CKII, phosphorylated in the N-terminus and hinge) (human). The assay is described as follows: native MS.
For assay [2], the target named is WT HP1α (human heterochromatin protein 1 alpha, unmodified) (human). The assay is described as follows: AUC.

Turning to “Phos-HP1α (HP1α co-expressed with CKII, phosphorylated in the N-terminus and hinge) (natural protein)”, in assay [1], the stoichiometry N turned out to be 2. “WT HP1α (human heterochromatin protein 1 alpha, unmodified) (natural protein)” showed a pKd in assay [2] of 5.95.
